In patent publication US20210198377A1 (XDCEXPLORER SHANGHAI, published 2021):
Read-outs that look alike come from different tables or passages of the source. Each block holds one molecule with its values, some of them ahead of it.

Columns and labels:
[1] = target: T1, human TPBG (full length, on cells) (human, UniProt Q13641 32-420); test: FACS, HEK293 clone 293F-hTPBG 5G11
T1 sequence (looked up): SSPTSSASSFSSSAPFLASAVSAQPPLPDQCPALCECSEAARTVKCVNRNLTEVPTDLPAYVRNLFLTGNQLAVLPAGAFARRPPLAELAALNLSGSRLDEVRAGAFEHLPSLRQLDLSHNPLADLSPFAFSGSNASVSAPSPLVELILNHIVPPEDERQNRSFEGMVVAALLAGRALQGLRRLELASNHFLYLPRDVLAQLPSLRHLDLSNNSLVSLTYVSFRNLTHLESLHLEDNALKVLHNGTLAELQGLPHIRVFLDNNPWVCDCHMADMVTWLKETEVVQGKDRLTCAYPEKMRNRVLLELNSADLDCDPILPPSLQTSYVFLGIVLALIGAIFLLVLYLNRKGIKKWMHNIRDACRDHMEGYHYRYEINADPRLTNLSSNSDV

[2] = target: T1, human TPBG (full length, on cells); test: FACS, HEK293 cell strain 5E5E9 transfected with human TPBG
[3] = target: T1, human TPBG (full length, on cells); test: FACS, HEK293 clone 293F-hTPBG 4C5
[4] = target: T1, human TPBG (full length, on cells); test: FACS, HEK293 clone 293F-hTPBG 5A11
[5] = target: T1, human TPBG (full length, on cells); test: FACS, HEK293 clone 293F-hTPBG 4H12
[6] = target: T1, human TPBG (full length, on cells); test: FACS, HEK293 clone 293F-hTPBG 4C3
[7] = target: T1, human TPBG (full length, on cells); test: FACS, HEK293 clone 293F-hTPBG 4G1
[8] = target: cynomolgus monkey TPBG (full length, on cells) (cynomolgus monkey) (UniProt Q4R8Y9); test: FACS on CHO-k1-cTPBG 3F13G4 cells
[9] = target: T1, human TPBG (full length, on cells); test: FACS, HEK293 clone 293F-hTPBG 4F9
[10] = target: T2, mouse TPBG (full length, on cells) (mouse, UniProt Q9Z0L0 32-426); test: FACS on CHO-k1-mTPBG 3A3 cells
T2 construct: whole, on cells; On transfected CHO-K1 cells; also called mTPBG; CHO-K1-mTPBG
T2 sequence (looked up): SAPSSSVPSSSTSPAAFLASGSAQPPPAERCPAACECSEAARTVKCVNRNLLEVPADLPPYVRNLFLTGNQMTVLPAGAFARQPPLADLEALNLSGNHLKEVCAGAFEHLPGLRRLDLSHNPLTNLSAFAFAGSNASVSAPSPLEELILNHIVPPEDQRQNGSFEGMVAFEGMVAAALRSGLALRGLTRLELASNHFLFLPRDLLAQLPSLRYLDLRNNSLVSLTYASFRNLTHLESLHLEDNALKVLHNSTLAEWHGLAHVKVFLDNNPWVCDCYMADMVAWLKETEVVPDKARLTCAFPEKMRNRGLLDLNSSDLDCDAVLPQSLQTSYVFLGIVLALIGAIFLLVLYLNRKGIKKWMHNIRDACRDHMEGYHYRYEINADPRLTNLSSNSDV

[11] = target: T1, human TPBG (full length, on cells); test: FACS, HEK293 clone 293F-hTPBG 5H6
[12] = target: T1, human TPBG (full length, on cells); test: FACS, HEK293 clone 293F-hTPBG 5E6
[13] = target: T1, human TPBG (full length, on cells); test: FACS, HEK293 clone 293F-hTPBG 5C12
[14] = target: T1, human TPBG (full length, on cells); test: FACS, HEK293 clone 293F-hTPBG 5G8
[15] = target: T1, human TPBG (full length, on cells); test: FACS, HEK293 clone 293F-hTPBG 4G6
[16] = target: T1, human TPBG (full length, on cells); test: FACS, HEK293 clone 293F-hTPBG 4E1 (NO. 8)
[17] = target: T1, human TPBG (full length, on cells); test: FACS, HEK293 clone 293F-hTPBG 4A8
[18] = target: T1, human TPBG (full length, on cells); test: FACS, HEK293 clone 293F-hTPBG 4E1
[19] = target: T1, human TPBG (full length, on cells); test: FACS, HEK293 clone 293F-hTPBG 5A9
[20] = target: T1, human TPBG (full length, on cells); test: FACS, HEK293 clone 293F-hTPBG 5E5
[21] = target: T1, human TPBG (full length, on cells); test: FACS, HEK293 clone 293F-hTPBG 5D4
[22] = target: T1, human TPBG (full length, on cells); test: FACS on CHO-k1-hTPBG 3A2F1 cells
[23] = target: T1, human TPBG (full length, on cells); test: FACS, HEK293 clone 293F-hTPBG 4A9
[24] = target: T1, human TPBG (full length, on cells); test: FACS, HEK293 clone 293F-hTPBG 4B9
[25] = target: T1, human TPBG (full length, on cells); test: cell-based or functional assay
[26] = target: T1, human TPBG (full length, on cells); test: cell-based or functional assay; remark: listed apart in the source
[27] = target: T1, human TPBG (full length, on cells); test: cell-based or functional assay; remark: listed apart in the source
[28] = target: T1, human TPBG (full length, on cells); test: cell-based or functional assay; remark: listed apart in the source

- MFI [1]: 11.3 MFI
- MFI [2]: 216 MFI
- percentage of TPBG-positive cells [2]: 98.5%
- MFI [3]: 172 MFI
- MFI [4]: 166 MFI
- MFI [5]: 9.5 MFI
- MFI [6]: 27.2 MFI
- MFI [7]: 131 MFI
- MFI [8]: 198 MFI
- MFI [9]: 47.7 MFI
- MFI [10]: 135 MFI
- MFI [11]: 36.4 MFI
- MFI [12]: 13.2 MFI
- MFI [13]: 75.4 MFI
- MFI [14]: 168 MFI
- MFI [15]: 31.8 MFI
- MFI [16]: 91.8 MFI
- MFI [17]: 33.4 MFI
- MFI [18]: 145 MFI
- MFI [19]: 53.2 MFI
- MFI [20]: 280 MFI
- MFI [21]: 70.6 MFI
- MFI [22]: 798 MFI
- MFI [23]: 204 MFI
- MFI [24]: 126 MFI
Molecule: commercial available TPBG antibody (purchased from Sigma, Lot NO: SAB1404485)

Molecule: Control hIgG-MMAF (antibody)
- IC50 of cytotoxicity on TPBG-positive NCI-H1299 cells (CellTiter-Glo) [25]: > 100 nM

B1: Chimeric Antibody 28D4-MMAF (antibody, human IgG1, DAR 3, V domains shown)
VH: DVQLVESGGGLVRPGGSLKLSCAASGFTFSNYVMSWARQSPEKRLEWVAEISTGGSHTYYSDTVTGRFTISRDNAKKALYLEMSSLRSEDTAIYYCIMFYYGSSYSMDYWGQGTSVTVSS
VL: DIQMTQSTSSLSASLGDRITISCRASQDIRNYLNWYQQKPDGTVKLLIYHTSRLHSGVPSRFSGSGSGTDYSLTISNLEQEDIATYFCQQGDTLPLTFGAGTRLELK
modifications: MC-MMAF on cysteines after TCEP reduction, sites not stated
- IC50 of cytotoxicity on TPBG-positive NCI-H1299 cells (CellTiter-Glo) [26]: 0.132 nM
- IC50 of cytotoxicity on TPBG-positive NCI-H1568 cells (CellTiter-Glo) [26]: 0.066 nM
- IC50 of cytotoxicity on recombinant 293-hTPBG cells (CellTiter-Glo) [27]: 0.024 nM
- IC50 of cytotoxicity on TPBG-positive NCI-H1299 cells (CellTiter-Glo) [28]: 0.21 nM

B2: Chimeric Antibody 28D4-DM1 (antibody, human IgG1, DAR about 3, V domains shown)
VH: B1 VH
VL: B1 VL
modifications: SMCC-DM1, sites not stated
- IC50 of cytotoxicity on TPBG-positive NCI-H1299 cells (CellTiter-Glo) [26]: 6.08 nM
- IC50 of cytotoxicity on TPBG-positive NCI-H1568 cells (CellTiter-Glo) [26]: 2.51 nM
- IC50 of cytotoxicity on recombinant 293-hTPBG cells (CellTiter-Glo) [27]: 0.406 nM

B3: Chimeric Antibody 28D4-MMAE (antibody, human IgG1, DAR about 3, V domains shown)
VH: B1 VH
VL: B1 VL
modifications: MC-VC-PAB-MMAE on cysteines after TCEP reduction, sites not stated
- IC50 of cytotoxicity on TPBG-positive NCI-H1299 cells (CellTiter-Glo) [26]: 369 nM
- IC50 of cytotoxicity on TPBG-positive NCI-H1568 cells (CellTiter-Glo) [26]: > 100 nM
- IC50 of cytotoxicity on recombinant 293-hTPBG cells (CellTiter-Glo) [27]: 0.08 nM

B4: Chimeric Antibody 39A11-MMAF (antibody, human IgG1, DAR 3, V domains shown)
VH: QVQLQQSGAELMKPGASMRLSCKATGYTFTGYWLEWIKRRPGHGLEWIGEILPGRGSTNYNEKFKGKATFTAETSSNTAYMQLTSLTTEDSAIYYCARGGRDFDNWGQGTTLTVSS
VL: DIQMTQSTSSLSASLGDRVTISCSASQGINNHLNWYQQKPDGTVKLLIYYTSSLHSGVPSRFSGSGSGTDYSLTISNLEPEDIAIYYCQQFSKLPYTFGGGTKVEMK
modifications: MC-MMAF on cysteines after TCEP reduction, sites not stated
- IC50 of cytotoxicity on TPBG-positive NCI-H1299 cells (CellTiter-Glo) [28]: 4.3 nM

B5: Chimeric Antibody 36A10-MMAF (antibody, human IgG1, DAR 3, V domains shown)
VH: DVQLQESGPGMVKPSQSLSLTCTVTGYSITSGYDWHWIRHFPGNKLEWMGYISYSGNTNYNPSLKSRISITHNTSKNHFFLRLNSVTTEDTATYYCARGYGNWDAMDYWGQGTSVTVSS
VL: DIVMTQSQKFMSTSVGDRVSVTCKASQIVDTNVAWYQQKPGQSPKALISSASYRYSGVPDRFTGSGSGTDFTLTISNVQSEDLAEYFCQQYNSYPLTFGAGTKLELT
modifications: MC-MMAF on cysteines after TCEP reduction, sites not stated
- IC50 of cytotoxicity on TPBG-positive NCI-H1299 cells (CellTiter-Glo) [28]: 0.7 nM

B6: Chimeric Antibody 5G4-MMAF (antibody, human IgG1, DAR 3, V domains shown)
VH: EVQLVESGGDLVQPGGSLKLFCAASGFTFSTYGLSWVRQTPDKRLELVATITNNDGSAYYPDSVKGRFTISRDKAKNTLFLQMTSLKSEDTAMYYCARETGFGSSYLFDYWGQGTLVTVSA
VL: NIVMTQTPKFLLVSAGDRVTITCKASQSVSNDVAWYQQKPGQSPKLLIYFATNRYTGVPNRFTGSGYGTEFTFTISSVQAEDLAVYFCQQDYSSPTFGGGTKLEIK
modifications: MC-MMAF on cysteines after TCEP reduction, sites not stated
- IC50 of cytotoxicity on TPBG-positive NCI-H1299 cells (CellTiter-Glo) [28]: 87.3 nM

B7: Chimeric Antibody 12B12-MMAF (antibody, human IgG1, DAR 3, V domains shown)
VH: DVQLVESGGGLVQPGGSRKLSCAASGFTFSNFGMHWVRQAPEKGLEWVAYISSGSTSFYYADTVKGRFTISRDNPKNTLFLQMTSLRSEDTAMYYCSRTNSLLRGFFDAWGAGTTVTVSS
VL: DIVLTQSPASLAVSLGQRATISCRASQSVSSSSYTYLHWYQQKPGQPPKLLIKSASNLESGVPARFSGTGSGTDFTLNIHPVEEEDTATYYCQHSWEIPLTFGAGTKLELK
modifications: MC-MMAF on cysteines after TCEP reduction, sites not stated
- IC50 of cytotoxicity on TPBG-positive NCI-H1299 cells (CellTiter-Glo) [26]: 0.04 nM
- IC50 of cytotoxicity on TPBG-positive NCI-H1568 cells (CellTiter-Glo) [26]: 0.025 nM
- IC50 of cytotoxicity on recombinant 293-hTPBG cells (CellTiter-Glo) [27]: 0.001 nM
- IC50 of cytotoxicity on TPBG-positive NCI-H1299 cells (CellTiter-Glo) [28]: 0.13 nM
